Assay results reported in PMC4646805 (Science Advances, 2015).
Changes are numbered by the printed parent chain. In names and notes the source's numbering stands. Where two headings read alike, the source gives them in different places.

Assays:
[1] = molecular target: T1, rabbit skeletal muscle actin, pyrene-labelled, phalloidin-stabilized (rabbit, UniProt P68135 1-377, pyrene (labelled with pyrene-maleimide)); assay: other fluorescence titration
[2] = molecular target: T1, rabbit skeletal muscle actin, …; assay: other fluorescence titration; remark: listed apart in the source

B1: wild-type human β-cardiac myosin short subfragment 1 (sS1) with C-terminal 6× His tag (complex)
chain 1: MGDSEMAVFGAAAPYLRKSEKERLEAQTRPFDLKKDVFVPDDKQEFVKAKIVSREGGKVTAETEYGKTVTVKEDQVMQQNPPKFDKIEDMAMLTFLHEPAVLYNLKDRYGSWMIYTYSGLFCVTVNPYKWLPVYTPEVVAAYRGKKRSEAPPHIFSISDNAYQYMLTDRENQSILITGESGAGKTVNTKRVIQYFAVIAAIGDRSKKDQSPGKGTLEDQIIQANPALEAFGNAKTVRNDNSSRFGKFIRIHFGATGKLASADIETYLLEKSRVIFQLKAERDYHIFYQILSNKKPELLDMLLITNNPYDYAFISQGETTVASIDDAEELMATDNAFDVLGFTSEEKNSMYKLTGAIMHFGNMKFKLKQREEQAEPDGTEEADKSAYLMGLNSADLLKGLCHPRVKVGNEYVTKGQNVQQVIYATGALAKAVYERMFNWMVTRINATLETKQPRQYFIGVLDIAGFEIFDFNSFEQLCINFTNEKLQQFFNHHMFVLEQEEYKKEGIEWTFIDFGMDLQACIDLIEKPMGIMSILEEECMFPKATDMTFKAKLFDNHLGKSANFQKPRNIKGKPEAHFSLIHYAGIVDYNIIGWLQKNKDPLNETVVGLYQKSSLKLLSTLFANYAGADAPIEKGKGKAKKGSSFQTVSALHRENLNKLMTNLRSTHPHFVRCIIPNETKSPGVMDNPLVMHQLRCNGVLEGIRICRKGFPNRILYGDFRQRYRILNPAAIPEGQFIDSRKGAEKLLSSLDIDHNQYKFGHTKVFFKAGLLGLLEEMRDERLSRIITRIQAQSRGVLARMEYKKLLERR
chain 2: not shown
[1]
  Kd: 0.0234 ± 0.0025 µM
[2]
  Kd: 0.01 ± 0.0018 µM

B2: R403Q human β-cardiac myosin short subfragment 1 (sS1) with C-terminal 6× His tag (complex)
chain 1: B1 chain 1 with R403Q
chain 2: not shown
[1]
  Kd: 0.0632 ± 0.0167 µM
[2]
  Kd: 0.0197 ± 0.0062 µM
